Test results as given in article PMC9116965 (iScience, 2022).

B1: EY6A (antibody, V domains shown)
VH: EVQLVESGGGVVQPGRSLRLSCAASAFTFSSYDMHWVRQAPGKGLEWVAVISYDGSNKYYADSVKGRFTISRDNSKNTLYLQMNSLRAEDTAVYYCAKDGGKLWVYYFDYWGQGTLVTVSS
VL: not shown
B2: STS165 (full-length IgG form) (antibody, V domains shown)
VH: EVQLVESGGGVVRPGGSLRLSCAASGFTFDDYGMSWVRQAPGKGLEWVSGINWNGGSTGYADSVKGRFTISRDNAKNSLYLQMNSLRAEDTALYHCARVGYCGGDCYSLSLAGFPDYWGQGTLVTVSS
VL: not shown
B3: STS165 Fab form (Fab, V domains shown)
VH: B2 VH
VL: not shown
B4: H014 (antibody, V domains shown)
VH: EVQLVQSGAEVKKPGATVKISCKVSGYSFSNYYIHWVKQAPGKSLEWIGYIDPFNGGTSDNLKFKGAATLTADTSTDTAYMELSSLRSEDTAVYYCARSEYDPYYVMDYWGQGTTVTVSS
VL: IVLTQSPFQSVSPKEKVTITCRASQSISSNLHWYQQKPDQSPKLLIKYASQSISGIPSRFSGSGSGTDFTLTINSLEAEDFGIYFCQQTNFWPYIFGQGTKLEIL
B5: S2A4 (antibody, V domains shown)
VH: EVQLVESGGGLVQPGGSLRLSCAASGFTFSSYWMNWVRQAPGKGLEWVANIKQDGSEKYYVDSVKGRFTISRDNAKNSLFLQMNSLRAEDTAVYYCARVWWLRGSFDYWGQGTLVTVSS
VL: NFMLTQPHSVSESPGKTVTISCTGSSGSIASNYVQWYQQRPGSAPTTVIYEDNQRPSGVPDRFSGSIDSSSNSASLTISGLKTEDEADYYCQSYDSSNHVVFGGGTKLTVL

Columns and labels:
[1] = target: T1, SARS-CoV-2 WT RBD protein (SARS-CoV-2 (WT), UniProt P0DTC2); assay: ELISA
SARS-CoV RBD protein = SARS-CoV RBD protein (Severe acute respiratory syndrome …, UniProt P59594); assay: cell-based or functional assay
[2] = target: T1, SARS-CoV-2 WT RBD protein; assay: SPR

Binder	binding result [1]	further results
B1	binds	–
B2	–	pseudovirus neutralisation of SARS-CoV, IC50 (HEK-293T-hACE2 cells, luciferase) (SARS-CoV RBD protein): 2.09 µg/mL
B3	–	fold decrease of binding affinity against the IgG form [2]: > 50 fold
B4	binds	–
B5	binds	–
